Measurements taken from patent US10654915B2, “Antibodies useful in passive influenza immunization” (priority 2011, dated 2020).
“And” between values parts separate entries of the source, which are not always exact repeats. Equal entries are not always repeated. Where two headings read alike, the source gives them in different places.

Key:
[1] = molecular target: H5 HA; format: binding, influenza A; settings: read-out: affinity
[2] = test system: H5N1: A/Vietnam/1203/04/HPAI; parameters: species or system mice; settings: mouse, in vivo, ip, 10 mg/kg
[3] = test system: HA1; experiment: Binding to HA1; parameters: species or system influenza A
[4] = test system: H1N1 Influenza A/Ca/04/09; experiment: Comparison to treatment with Tamiflu in infected mice; format: in vivo
[5] = molecular target: H1 HA; format: binding, influenza A; settings: read-out: affinity
[6] = molecular target: H5N1 A/VN/1204 (H5 Vietnam/1203/2004) HA; format: binding, influenza A
[7] = test system: H1N1 A/CA/07/09; experiment: MDCK monolayer microneutralization assay; format: cell-based, influenza A
[8] = test system: A/Ca/04/09 (H1N1); experiment: In vivo efficacy, treatment at Day 2; parameters: species or system mice; settings: IP at Day 2, 10 mg/kg (mixture 10 mg/kg each), FIGS. 6A, 6C
[9] = molecular target: H7 HA; format: binding, influenza A; settings: read-out: affinity
[10] = test system: H1N1; parameters: species or system mice; settings: mouse, in vivo
[11] = molecular target: H1N1 A/CA/07/09 (H1 Calif/07/09) HA; format: binding, influenza A
[12] = test system: H9N2; format: cell-based, influenza A
[13] = test system: H5N1; parameters: species or system mice; settings: mouse, in vivo
[14] = test system: H9N2 Mallard/MN/98; format: cell-based, influenza A
[15] = test system: H1N1; format: cell-based, influenza A
[16] = molecular target: H9 HA; format: binding, influenza A; settings: read-out: affinity
[17] = test system: virus 10 times the LD50 delivered intranasally; experiment: Prophylaxis in mice, potency (EC50); format: in vivo; settings: single intraperitoneal dose at Day -1, virus at Day 0
[18] = test system: H1N1: A/CA/04/09; parameters: species or system mice; settings: mouse, in vivo, ip, 10 mg/kg
[19] = test system: H7N3; format: cell-based, influenza A
[20] = test system: H2N2 A/Mallard/MN/2008; format: cell-based, influenza A
[21] = test system: H5N1 A/VN/1204; format: cell-based, influenza A
[22] = test system: H5N1; format: cell-based, influenza A
[23] = molecular target: HA of clades spanning Group 1; experiment: Standard FortéBio assay (FIG. 3A); format: binding, influenza A; settings: Group 1, FIG. 3A
[24] = test system: Philippines 2/82; parameters: species or system mice; settings: mouse, in vivo

B1: MAB53 (antibody, V domains shown)
VH: QVQLVQSGAEVRKPGSSVKVSCKVSGGIIRKYAINWVRQAPGQGLEWMGGIIAIFNTANYAQKFQGRVTITADESTSTVYMELSSLRSEDTALYYCARGMNYYSDYFDYWGQGSLVTVSP
VL: EIVLTQSPGTLSLSPGERATLSCRASQSVRSNNLAWYQHKPGQAPRLLIFGASSRATGIPDRFSGSGSGTDFTLTISRLEPEDFAVYYCQQYGSSPALTFGGGTKVEIK
modifications: CHAIN (1)...(120) MAB53 heavy chain sequence of variable domain; DOMAIN (31)...(35) CDR1; DOMAIN (50)...(66) CDR2; DOMAIN (99)...(110) CDR3; CHAIN (1)...(109) MAB53 light chain sequence; DOMAIN (24)...(35) CDR1; DOMAIN (51)...(57) CDR2; DOMAIN (90)...(98) CDR3
- Kd [1]: 6 nM
- therapeutic effectiveness (survival) [2]: fully effective
- binding to HA1 [3]: does not bind HA1
- survival ([4]; 10 mice per group, treatment from Day +1, to Day 14): eight of the ten mice survived past Day 8 to Day 14
- weight relative to original weight (in words) ([4]; by Day 14): the original weight was exceeded
- day at which decline in weight was reversed ([4]; treatment from Day +1): 4 days
- Kd [5]: 0.06 nM
- Kd ([6]; read-out: Affinity by FortéBio): 0.5 nM
- Kd ([6]; read-out: KD): 0.5 nM
- Potency Difference ([7]; MAB53 vs CR6261 EC50, H1N1 A/CA/07/09): 30x
- EC50 ([7]; in vitro neutralization, H1N1 A/CA/07/09): 0.14 µg/mL
- protection / survival [8]: protective
- Kd [9]: 0.07 nM
- survival [10]: 90% and 50%
- Kd [11]: 0.1 nM
- low doses that neutralized infection [12]: 1 to 5 µg/mL
- survival [13]: 80% and 60% and 50%
- EC50 [14]: 0.10 µg/mL
- low doses that neutralized infection [15]: 1 to 5 µg/mL
- Kd [16]: 0.03 nM
- EC50 (prophylaxis potency) [17]: 0.4 mg/kg
- therapeutic effectiveness (survival) [18]: fully effective
- low doses that neutralized infection [19]: 1 to 5 µg/mL
- EC50 [20]: 1.20 µg/mL
- EC50 [21]: 0.10 µg/mL
- Potency Difference [21]: 40x
- low doses that neutralized infection [22]: 1 to 5 µg/mL
- affinity across clades (in words) [23]: sub-nM affinity
- protection / survival [24]: resulted in death after 10 days
